Measured values: publication PMC4215538, “A clathrin coat assembly role for the muniscin protein central linker revealed by TALEN-mediated gene editing” (eLife, 2014)

Target: T1, AP-2 α appendage (mouse, UniProt P17427 701-938)
T1 construct: AP-2 αC subunit appendage, mouse, residues 701–938; It was added soluble to glutathione-Sepharose pull-downs, so GST was probably removed; also called αC appendage (mouse residues 701–938); purified AP-2 α appendage; source: purified (from the GST-αC appendage construct described previously)
Assay: pull-down; ~200 μg GST fusion on glutathione-Sepharose; rat brain cytosol supplemented with 5 μM or 25 μM purified AP-2 α appendage; recovery of the added α appendage in the pellets
Details: both partners purified

T1 sequence (P17427 701-938): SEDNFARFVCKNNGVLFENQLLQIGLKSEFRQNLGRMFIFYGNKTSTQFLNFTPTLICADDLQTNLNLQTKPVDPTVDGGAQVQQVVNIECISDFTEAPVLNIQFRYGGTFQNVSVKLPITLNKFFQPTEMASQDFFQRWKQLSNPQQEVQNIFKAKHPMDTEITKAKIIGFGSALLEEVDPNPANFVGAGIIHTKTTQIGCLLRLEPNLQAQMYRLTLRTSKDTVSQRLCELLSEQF

B1: GST-EPS15 (595–740) (domain or fragment, UniProt P42566 595-740, looked up)
chain: SKEEDPFNVDSSSLTGPVADTNLDFFQSDPFVGSDPFKDDPFGKIDPFGGDPFKGSDPFASDCFFRQSTDPFATSSTDPFSAANNSSITSVETLKHNDPFAPGGTVVAASDSATDPFASVFGNESFGGGFADFSTLSKVNNEDPFR
notes: also called GST-EPS15 fusion; C-terminal region of EPS15; source: purified GST fusion (purification described in Umasankar et al., 2012)
binding result: binds
